This is an account of results in publication doi:10.1101/738179, “Rad51 Interaction Analysis Reveals a Functional Interplay Among Recombination Auxiliary Factors” (bioRxiv, 2019).

B1: Rad51 (natural protein, S. pombe, UniProt P36601 1-365, looked up)
chain: MADTEVEMQVSAADTNNNENGQAQSNYEYDVNVQDEEDEAAAGPMPLQMLEGNGITASDIKKIHEAGYYTVESIAYTPKRQLLLIKGISEAKADKLLGEASKLVPMGFTTATEYHIRRSELITITTGSKQLDTLLQGGVETGSITELFGEFRTGKSQICHTLAVTCQLPIDMGGGEGKCLYIDTEGTFRPVRLLAVADRYGLNGEEVLDNVAYARAYNADHQLELLQQAANMMSESRFSLLVVDSCTALYRTDFSGRGELSARQMHLARFMRTLQRLADEFGIAVVITNQVVAQVDGISFNPDPKKPIGGNILAHSSTTRLSLRKGRGEQRICKIYDSPCLPESEAIFAINSDGVGDPKEIIAPV
notes: Rad51, RecA-family recombinase of S. pombe; Covalently attached to Affi-gel 15 in the pull-down; Multimer in solution by SEC; also called Affi-Rad51
B2: Swi5-Sfr1 (wild type, full-length Sfr1) (complex, S. pombe)
chain 1: MEKSQLESRVHLLEQQKEQLESSLQDALAKLKNRDAKQTVQKHIDLLHTYNEIRDIALGMIGKVAEHEKCTSVELFDRFGVNGSE
chain 2: MSQTINSELNENATSQCKEDLKVSLSESDLRDSQGQLGIENPPKCNNSGNHSDNLGFIEQSETVHPENEKALTPDLRDTKIHTSLPITTPFSKKRAREAKNILLKPFKSPLRQTASPQVADTNLKPSLAVTNLNSDETNTSSEPVTSPLRTTPNSIKRQKRLFKSPISNCLNPKSDPEITQLLSRRLKLEKEVRNLQEQLITAETARKVEAKNEDKDLQTLIQKWKNAAQQAAEVLFKPMAERIRLAGGVTQSFRIEEGENKGQIQEVRTEFTMSMFLNQFGVPVHLMSFDEENGDWKS

The target in test [1] is B2. As to the kind of experiment: pull-down; Rad51 covalently attached to Affi-gel 15 (2 µg protein/µL gel); Swi5-Sfr1 variant in Affi-gel buffer (25 mM HEPES-KOH pH 7.5, 150 mM NaCl, 3.5 mM MgCl2, 0.5 mM DTT, 0.05 µg/µL BSA, 10% glycerol, 0.05% igepal CA-630); 30 °C 30 min; Sfr1 detected by immunoblot; Affi-BSA as control. The settings on record: both partners purified.
The test “Rad51” addresses B1. The test can be described thus: cell-based or functional assay.

With B1, the binding result in test [1] is on record as “binds”. Take B2: the “Rad51-dependent ATP turnover, fold increase at a Swi5-Sfr1:Rad51 ratio of 1:20 (0.25 µM Swi5-Sfr1, 5 µM Rad51)” value in the test with Rad51 turned out to be 1.85 fold.
